In patent US20220031820:

System: T1, recombinant syndecan-1
T1 sequence (P18827 whole entry, species assumed, looked up): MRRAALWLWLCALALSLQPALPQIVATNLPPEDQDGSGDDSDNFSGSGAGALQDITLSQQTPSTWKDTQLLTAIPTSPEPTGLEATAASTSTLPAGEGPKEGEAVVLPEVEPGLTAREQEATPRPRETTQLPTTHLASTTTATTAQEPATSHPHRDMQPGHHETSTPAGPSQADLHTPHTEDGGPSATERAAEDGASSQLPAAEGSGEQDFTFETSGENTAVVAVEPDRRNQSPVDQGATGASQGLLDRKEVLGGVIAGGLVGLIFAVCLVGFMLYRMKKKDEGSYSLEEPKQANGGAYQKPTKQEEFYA

Question: How did the “in vitro syndecan-1 cleavage assay (coomassie gel); GzmB 500 nM, syndecan-1 0.7 ug” value turn out when recombinant GzmB was run?
Answer: Its value is “syndecan-1 was cleaved by all three granzymes”.
